Results taken from paper PMC3433420.
“And” between values parts separate entries of the source, which are not always exact repeats. Identical values can stand only once.

Key:
[1] = target: ErbB3 Y789 non-phosphorylated peptide, rhodamine-labelled (human); assay: fluorescence polarisation; saturation binding in solution: rhodamine peptide fixed at 10 nM, protein titrated 0.002-10 uM, 20 min at room temperature; assay buffer 20 mM HEPES, 100 mM KCl, 0.1% Tween-20, 5 mM DTT, pH 7.8; apparent KD
ABL1 SH2 domain (human) = ABL1 SH2 domain (human) (UniProt P00519); assay: peptide or protein array; SH2/PTB proteins spotted on aldehyde slides, rhodamine peptide titrated in buffer B (20 mM HEPES, 100 mM KCl, 0.1% Tween-20, 5 mM DTT, pH 7.8), 1 h at room temperature; replicate assays
ABL1 SH2 domain (human), sequence (P00519 127-217): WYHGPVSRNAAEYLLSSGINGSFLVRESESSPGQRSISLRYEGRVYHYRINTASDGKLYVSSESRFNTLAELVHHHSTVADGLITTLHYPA

ABL2 SH2 domain (human) = ABL2 SH2 domain (human) (UniProt P42684); assay: as above
ABL2 SH2 domain (human), sequence (P42684 173-263): as the sequence (P00519 127-217) above, with N9S, G18L, R35L, A53T, S54A, L58V, S61T, S62A, N67S, I84V counted along it

BLK SH2 domain (human) = BLK SH2 domain (human) (UniProt P51451); assay: as above
BLK SH2 domain (human), sequence (P51451 124-220): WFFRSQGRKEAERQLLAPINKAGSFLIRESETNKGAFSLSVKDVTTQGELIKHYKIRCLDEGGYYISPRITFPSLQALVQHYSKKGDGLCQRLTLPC

BLNK SH2 domain (human) = BLNK SH2 domain (human) (UniProt Q8WV28); assay: as above
BLNK SH2 domain (human), sequence (Q8WV28 346-453): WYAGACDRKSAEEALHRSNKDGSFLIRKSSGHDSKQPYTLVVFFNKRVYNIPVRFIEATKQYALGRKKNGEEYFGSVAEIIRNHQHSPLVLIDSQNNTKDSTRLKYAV

BMX SH2 domain (human) = BMX SH2 domain (human) (UniProt P51813); assay: as above
BMX SH2 domain (human), sequence (P51813 296-392): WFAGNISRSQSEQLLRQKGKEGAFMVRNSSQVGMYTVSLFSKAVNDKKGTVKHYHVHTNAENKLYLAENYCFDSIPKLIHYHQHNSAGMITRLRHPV

CRK SH2 domain (human) = CRK SH2 domain (human) (UniProt P46108); assay: as above
CRK SH2 domain (human), sequence (P46108 13-118): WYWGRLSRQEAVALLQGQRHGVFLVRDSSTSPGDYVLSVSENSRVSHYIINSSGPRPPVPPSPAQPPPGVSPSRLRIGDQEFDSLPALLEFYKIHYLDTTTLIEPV

CRKL SH2 domain (human) = CRKL SH2 domain (human) (UniProt P46109); assay: as above
CRKL SH2 domain (human), sequence (P46109 14-102): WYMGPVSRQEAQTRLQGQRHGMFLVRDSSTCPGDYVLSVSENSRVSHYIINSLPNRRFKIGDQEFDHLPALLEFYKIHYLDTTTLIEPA

GRB10 SH2 domain (human) = GRB10 SH2 domain (human) (UniProt Q13322); assay: as above
GRB10 SH2 domain (human), sequence (Q13322 493-574): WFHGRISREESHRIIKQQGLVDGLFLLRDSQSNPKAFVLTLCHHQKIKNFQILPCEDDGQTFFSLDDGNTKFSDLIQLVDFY

HCK SH2 domain (human) = HCK SH2 domain (human) (UniProt P08631); assay: as above
HCK SH2 domain (human), sequence (P08631 144-241): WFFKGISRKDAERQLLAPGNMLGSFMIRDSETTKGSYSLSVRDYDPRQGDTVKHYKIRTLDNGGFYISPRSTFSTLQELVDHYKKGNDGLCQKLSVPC

HSH2D SH2 domain (human) = HSH2D SH2 domain (human) (UniProt Q96JZ2); assay: as above
HSH2D SH2 domain (human), sequence (Q96JZ2 34-125): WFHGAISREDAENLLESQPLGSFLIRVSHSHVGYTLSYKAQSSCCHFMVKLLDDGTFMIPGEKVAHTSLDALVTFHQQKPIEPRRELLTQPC

NCK2 SH2 domain (human) = NCK2 SH2 domain (human) (UniProt O43639); assay: as above
NCK2 SH2 domain (human), sequence (O43639 285-380): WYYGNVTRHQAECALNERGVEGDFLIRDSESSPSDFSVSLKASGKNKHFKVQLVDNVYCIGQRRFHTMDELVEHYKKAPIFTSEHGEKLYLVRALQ

[2] = target: PIK3R2 tandem SH2 domains (human) (UniProt O00459); assay: as above
PIK3R2 tandem SH2 domains (human), sequence (O00459 whole entry, the tested form may be a part): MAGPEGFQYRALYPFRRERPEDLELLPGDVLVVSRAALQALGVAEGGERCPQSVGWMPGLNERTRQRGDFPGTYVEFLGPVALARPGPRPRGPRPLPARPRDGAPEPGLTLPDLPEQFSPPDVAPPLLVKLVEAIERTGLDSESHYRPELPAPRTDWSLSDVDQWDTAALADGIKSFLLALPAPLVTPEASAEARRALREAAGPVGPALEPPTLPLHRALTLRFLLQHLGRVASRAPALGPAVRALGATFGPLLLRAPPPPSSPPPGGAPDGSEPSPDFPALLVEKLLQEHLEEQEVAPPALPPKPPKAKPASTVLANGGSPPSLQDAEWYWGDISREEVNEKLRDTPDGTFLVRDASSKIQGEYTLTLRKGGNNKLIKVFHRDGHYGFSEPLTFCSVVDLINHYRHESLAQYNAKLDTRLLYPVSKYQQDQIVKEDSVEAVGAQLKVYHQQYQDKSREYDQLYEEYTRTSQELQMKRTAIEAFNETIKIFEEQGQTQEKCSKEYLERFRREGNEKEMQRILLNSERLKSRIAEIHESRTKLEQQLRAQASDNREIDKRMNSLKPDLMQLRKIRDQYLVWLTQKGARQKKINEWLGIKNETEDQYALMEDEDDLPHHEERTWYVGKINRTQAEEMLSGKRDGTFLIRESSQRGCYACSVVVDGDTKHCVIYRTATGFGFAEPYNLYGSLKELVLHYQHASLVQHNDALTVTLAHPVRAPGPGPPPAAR

[3] = target: PIK3R3 tandem SH2 domains (human); assay: as above
[4] = target: PLCG2 tandem SH2 domains (human); assay: as above
[5] = target: SH2D1A SH2 domain (human) (UniProt O60880); assay: as above
SH2D1A SH2 domain (human), sequence (O60880 6-104): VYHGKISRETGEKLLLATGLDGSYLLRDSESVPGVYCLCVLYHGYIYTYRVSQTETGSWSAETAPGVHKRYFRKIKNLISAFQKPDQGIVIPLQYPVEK

[6] = target: SH2D3A SH2 domain (human) (UniProt Q9BRG2); assay: as above
SH2D3A SH2 domain (human), sequence (Q9BRG2 15-114): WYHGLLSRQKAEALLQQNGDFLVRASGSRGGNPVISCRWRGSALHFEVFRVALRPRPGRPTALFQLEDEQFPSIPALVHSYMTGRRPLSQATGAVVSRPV

[7] = target: SH3BP2 SH2 domain (human) (UniProt P78314); assay: as above
SH3BP2 SH2 domain (human), sequence (P78314 457-555): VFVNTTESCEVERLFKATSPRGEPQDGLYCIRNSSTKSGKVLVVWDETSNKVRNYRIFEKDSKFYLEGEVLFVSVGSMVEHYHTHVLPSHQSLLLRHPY

SHF SH2 domain (human) = SHF SH2 domain (human) (UniProt Q7M4L6); assay: as above
SHF SH2 domain (human), sequence (Q7M4L6 323-418): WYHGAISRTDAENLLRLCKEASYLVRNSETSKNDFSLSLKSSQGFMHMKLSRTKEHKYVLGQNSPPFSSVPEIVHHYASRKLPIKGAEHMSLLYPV

SRC SH2 domain (human) = SRC SH2 domain (human) (UniProt P12931); assay: as above
[8] = target: SYK N-terminal SH2 domain (human); assay: as above
[9] = target: SYK tandem SH2 domains (human); assay: as above
TNS4 SH2 domain (human) = TNS4 SH2 domain (human) (UniProt Q8IZW8); assay: as above
YES1 SH2 domain (human) = YES1 SH2 domain (human) (UniProt P07947); assay: as above
YES1 SH2 domain (human), sequence (P07947 158-255): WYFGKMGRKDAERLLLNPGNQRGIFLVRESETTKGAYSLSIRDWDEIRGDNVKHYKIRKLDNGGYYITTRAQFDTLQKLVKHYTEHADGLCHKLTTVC

[10] = target: ZAP70 C-terminal SH2 domain (human) (UniProt P43403); assay: as above
ZAP70 C-terminal SH2 domain (human), sequence (P43403 whole entry, the tested form may be a part): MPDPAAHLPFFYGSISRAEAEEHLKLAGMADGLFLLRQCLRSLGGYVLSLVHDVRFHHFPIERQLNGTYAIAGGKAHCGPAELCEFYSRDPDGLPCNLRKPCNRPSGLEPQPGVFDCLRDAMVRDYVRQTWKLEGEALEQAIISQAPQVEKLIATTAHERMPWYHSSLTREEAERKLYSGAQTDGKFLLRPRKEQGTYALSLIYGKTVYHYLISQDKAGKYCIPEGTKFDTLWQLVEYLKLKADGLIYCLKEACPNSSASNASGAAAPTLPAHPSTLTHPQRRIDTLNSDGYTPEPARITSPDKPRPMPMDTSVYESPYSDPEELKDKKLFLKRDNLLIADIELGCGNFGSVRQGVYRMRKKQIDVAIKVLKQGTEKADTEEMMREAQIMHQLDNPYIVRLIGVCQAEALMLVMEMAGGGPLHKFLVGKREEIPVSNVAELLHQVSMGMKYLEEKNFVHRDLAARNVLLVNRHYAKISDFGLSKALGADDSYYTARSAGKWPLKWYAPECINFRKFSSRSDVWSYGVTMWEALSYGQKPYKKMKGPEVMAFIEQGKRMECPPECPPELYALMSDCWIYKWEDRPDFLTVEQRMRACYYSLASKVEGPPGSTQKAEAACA

GRAP2 SH2 domain (human) = GRAP2 SH2 domain (human) (UniProt O75791); assay: as above
GRAP2 SH2 domain (human), sequence (O75791 58-149): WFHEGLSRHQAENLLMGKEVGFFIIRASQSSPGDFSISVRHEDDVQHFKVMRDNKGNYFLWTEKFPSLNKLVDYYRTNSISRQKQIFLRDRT

LCK SH2 domain (human) = LCK SH2 domain (human) (UniProt P06239); assay: as above
LCK SH2 domain (human), sequence (P06239 127-224): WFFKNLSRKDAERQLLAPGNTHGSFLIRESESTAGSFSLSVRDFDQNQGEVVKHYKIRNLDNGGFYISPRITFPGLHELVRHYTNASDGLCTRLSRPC

NCK1 SH2 domain (human) = NCK1 SH2 domain (human) (UniProt P16333); assay: as above
[11] = target: PIK3R1 C-terminal SH2 domain (human); assay: as above
[12] = target: PTPN11 tandem SH2 domains (human); assay: as above
[13] = target: RASA1 C-terminal SH2 domain (human); assay: as above
[14] = target: RASA1 N-terminal SH2 domain (human) (UniProt P20936); assay: as above
RASA1 N-terminal SH2 domain (human), sequence (P20936 whole entry, the tested form may be a part): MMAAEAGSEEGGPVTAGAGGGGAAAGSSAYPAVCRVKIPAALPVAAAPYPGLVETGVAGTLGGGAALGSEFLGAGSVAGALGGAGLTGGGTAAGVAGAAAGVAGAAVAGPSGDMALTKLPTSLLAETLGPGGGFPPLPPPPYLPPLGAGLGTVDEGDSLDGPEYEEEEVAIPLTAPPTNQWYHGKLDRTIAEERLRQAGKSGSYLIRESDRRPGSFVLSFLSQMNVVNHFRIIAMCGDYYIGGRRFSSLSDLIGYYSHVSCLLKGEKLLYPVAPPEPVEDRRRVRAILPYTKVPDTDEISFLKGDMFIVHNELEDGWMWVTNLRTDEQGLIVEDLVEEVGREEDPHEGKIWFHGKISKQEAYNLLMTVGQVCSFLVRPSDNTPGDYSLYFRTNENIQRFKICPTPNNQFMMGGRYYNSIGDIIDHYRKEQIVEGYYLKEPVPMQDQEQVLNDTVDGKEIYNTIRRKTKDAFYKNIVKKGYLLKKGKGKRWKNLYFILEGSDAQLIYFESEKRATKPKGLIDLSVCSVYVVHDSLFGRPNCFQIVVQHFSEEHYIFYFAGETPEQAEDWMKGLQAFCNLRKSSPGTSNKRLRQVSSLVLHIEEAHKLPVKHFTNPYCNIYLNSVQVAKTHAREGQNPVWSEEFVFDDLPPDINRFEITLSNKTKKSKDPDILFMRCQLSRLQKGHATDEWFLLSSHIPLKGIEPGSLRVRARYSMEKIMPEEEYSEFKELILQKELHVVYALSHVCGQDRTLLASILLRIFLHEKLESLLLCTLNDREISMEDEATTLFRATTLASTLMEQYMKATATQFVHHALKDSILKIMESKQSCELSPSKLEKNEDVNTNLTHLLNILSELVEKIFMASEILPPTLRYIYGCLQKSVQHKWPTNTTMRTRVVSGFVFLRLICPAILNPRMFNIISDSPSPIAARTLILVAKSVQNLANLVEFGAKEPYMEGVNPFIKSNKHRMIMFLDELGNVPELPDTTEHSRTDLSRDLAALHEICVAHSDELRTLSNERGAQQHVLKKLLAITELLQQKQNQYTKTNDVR

SH2B3 SH2 domain (human) = SH2B3 SH2 domain (human) (UniProt Q9UQQ2); assay: as above
SH2B3 SH2 domain (human), sequence (Q9UQQ2 364-462): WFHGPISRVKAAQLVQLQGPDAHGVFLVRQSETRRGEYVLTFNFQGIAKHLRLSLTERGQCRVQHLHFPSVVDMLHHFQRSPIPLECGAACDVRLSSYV

[15] = target: SH2D1B SH2 domain (human) (UniProt O14796); assay: as above
SH2D1B SH2 domain (human), sequence (O14796 5-101): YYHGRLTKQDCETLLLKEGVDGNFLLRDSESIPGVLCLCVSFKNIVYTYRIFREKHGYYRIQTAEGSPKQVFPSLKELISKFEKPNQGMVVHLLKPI

[16] = target: SH2D3C SH2 domain (human) (UniProt Q8N5H7); assay: as above
SH2D3C SH2 domain (human), sequence (Q8N5H7 220-319): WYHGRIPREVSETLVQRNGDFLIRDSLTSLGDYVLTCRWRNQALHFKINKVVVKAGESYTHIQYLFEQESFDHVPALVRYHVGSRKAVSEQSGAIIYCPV

SHC3 SH2 domain (human) = SHC3 SH2 domain (human) (UniProt Q92529); assay: as above
SHC3 SH2 domain (human), sequence (Q92529 499-590): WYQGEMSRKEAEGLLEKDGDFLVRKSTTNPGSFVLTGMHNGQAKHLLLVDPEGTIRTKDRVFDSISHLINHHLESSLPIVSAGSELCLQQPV

PIK3R1 tandem SH2 domains (from UniProt P27986 1-724) (domain or fragment)
Kd [1]: 1590 nM

ErbB4 pY1221 phosphopeptide (18-mer), rhodamine-labelled, for protein microarrays
Kd (ABL1 SH2 domain (human)): 250 nM | Kd (ABL2 SH2 domain (human)): 906 nM and 283 nM | Kd (BLK SH2 domain (human)): 1150 nM and 1160 nM and 583 nM | Kd (BLNK SH2 domain (human)): 4000 nM | Kd (BMX SH2 domain (human)): 419 nM | Kd (CRK SH2 domain (human)): 64500 nM | Kd (CRKL SH2 domain (human)): 107 nM | Kd (GRB10 SH2 domain (human)): 234 nM | Kd (HCK SH2 domain (human)): 70 nM | Kd (HSH2D SH2 domain (human)): 994 nM | Kd (NCK2 SH2 domain (human)): 211 nM | Kd [2]: 1340 nM | Kd [3]: 544 nM | Kd [4]: 1250 nM and 1380 nM | Kd [5]: 766 nM | Kd [6]: 605 nM | Kd [7]: 2360 nM and 10900 nM and 1240 nM | Kd (SHF SH2 domain (human)): 1190 nM | Kd (SRC SH2 domain (human)): 443 nM | Kd [8]: 15600 nM and 9490 nM | Kd [9]: 811 nM and 1290 nM and 285 nM | Kd (TNS4 SH2 domain (human)): 323 nM | Kd (YES1 SH2 domain (human)): 1320 nM and 818 nM | Kd [10]: 791 nM

ErbB4 pY733 phosphopeptide (18-mer), rhodamine-labelled, for protein microarrays
Kd (ABL2 SH2 domain (human)): 1370 nM and 1730 nM and 268 nM | Kd (GRAP2 SH2 domain (human)): 852 nM | Kd (GRB10 SH2 domain (human)): 1270 nM | Kd (HSH2D SH2 domain (human)): 2210 nM | Kd (LCK SH2 domain (human)): 1240 nM | Kd (NCK1 SH2 domain (human)): 724 nM | Kd [11]: 438 nM | Kd [3]: 7820 nM and 10500 nM | Kd [12]: 177 nM | Kd [13]: 10400 nM | Kd [14]: 685 nM | Kd (SH2B3 SH2 domain (human)): 1180 nM | Kd [5]: 823 nM and 1610 nM and 1680 nM | Kd [15]: 404 nM and 1280 nM and 1340 nM | Kd [6]: 603 nM and 790 nM and 912 nM | Kd [16]: 9360 nM | Kd (SHC3 SH2 domain (human)): 7660 nM | Kd (SHF SH2 domain (human)): 2700 nM and 8500 nM | Kd [8]: 3040 nM and 3450 nM and 803 nM | Kd (YES1 SH2 domain (human)): 1180 nM and 1170 nM and 421 nM | Kd [10]: 1530 nM and 1520 nM and 404 nM
